Bridge positions count the residues as written; N and C are the ends.
T1: Ubiquitin carboxyl-terminal hydrolase 2, O75604
T1 chain: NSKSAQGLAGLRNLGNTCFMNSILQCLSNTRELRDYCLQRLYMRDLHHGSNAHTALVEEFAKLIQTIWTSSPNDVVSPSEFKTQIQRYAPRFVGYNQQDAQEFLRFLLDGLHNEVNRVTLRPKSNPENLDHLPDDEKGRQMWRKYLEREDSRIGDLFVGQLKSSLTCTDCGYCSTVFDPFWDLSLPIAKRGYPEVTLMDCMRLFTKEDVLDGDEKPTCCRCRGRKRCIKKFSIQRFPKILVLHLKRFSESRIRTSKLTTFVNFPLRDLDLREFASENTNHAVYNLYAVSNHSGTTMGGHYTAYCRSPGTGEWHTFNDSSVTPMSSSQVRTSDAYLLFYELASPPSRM

T2: COX1(h) (human), P23219
T2 chain: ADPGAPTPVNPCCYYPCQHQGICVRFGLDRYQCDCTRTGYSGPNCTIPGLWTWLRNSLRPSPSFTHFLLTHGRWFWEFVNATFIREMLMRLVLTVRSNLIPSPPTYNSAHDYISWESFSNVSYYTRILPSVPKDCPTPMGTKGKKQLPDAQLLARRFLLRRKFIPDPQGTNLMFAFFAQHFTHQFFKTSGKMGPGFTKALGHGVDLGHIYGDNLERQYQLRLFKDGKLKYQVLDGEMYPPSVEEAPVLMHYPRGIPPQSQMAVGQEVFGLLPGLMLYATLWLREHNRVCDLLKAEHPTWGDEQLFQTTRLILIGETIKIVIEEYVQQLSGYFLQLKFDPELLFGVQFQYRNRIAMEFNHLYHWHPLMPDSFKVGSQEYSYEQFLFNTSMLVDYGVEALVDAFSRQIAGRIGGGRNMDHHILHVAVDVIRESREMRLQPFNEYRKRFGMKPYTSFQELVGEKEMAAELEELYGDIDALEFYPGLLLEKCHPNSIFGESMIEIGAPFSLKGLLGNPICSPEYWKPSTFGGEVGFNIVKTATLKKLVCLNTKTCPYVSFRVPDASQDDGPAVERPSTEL

T3: COX2(h) (human), P35354
T3 chain: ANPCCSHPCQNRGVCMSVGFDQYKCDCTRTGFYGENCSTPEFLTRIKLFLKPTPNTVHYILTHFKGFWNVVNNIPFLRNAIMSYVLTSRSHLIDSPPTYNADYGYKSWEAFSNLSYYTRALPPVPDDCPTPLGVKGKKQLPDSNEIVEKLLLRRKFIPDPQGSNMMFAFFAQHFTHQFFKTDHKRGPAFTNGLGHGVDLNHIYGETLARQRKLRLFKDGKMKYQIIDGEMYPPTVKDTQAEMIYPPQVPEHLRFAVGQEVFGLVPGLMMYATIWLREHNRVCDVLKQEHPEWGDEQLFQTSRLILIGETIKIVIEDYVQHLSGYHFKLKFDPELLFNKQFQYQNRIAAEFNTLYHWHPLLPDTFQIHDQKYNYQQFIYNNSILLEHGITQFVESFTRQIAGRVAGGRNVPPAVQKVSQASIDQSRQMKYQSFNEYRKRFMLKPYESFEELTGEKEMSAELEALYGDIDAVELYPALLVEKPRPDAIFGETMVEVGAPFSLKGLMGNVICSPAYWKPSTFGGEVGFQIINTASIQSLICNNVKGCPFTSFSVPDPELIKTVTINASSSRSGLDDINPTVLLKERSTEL

T4: Ubiquitin carboxyl-terminal hydrolase 8, P40818
T4 chain: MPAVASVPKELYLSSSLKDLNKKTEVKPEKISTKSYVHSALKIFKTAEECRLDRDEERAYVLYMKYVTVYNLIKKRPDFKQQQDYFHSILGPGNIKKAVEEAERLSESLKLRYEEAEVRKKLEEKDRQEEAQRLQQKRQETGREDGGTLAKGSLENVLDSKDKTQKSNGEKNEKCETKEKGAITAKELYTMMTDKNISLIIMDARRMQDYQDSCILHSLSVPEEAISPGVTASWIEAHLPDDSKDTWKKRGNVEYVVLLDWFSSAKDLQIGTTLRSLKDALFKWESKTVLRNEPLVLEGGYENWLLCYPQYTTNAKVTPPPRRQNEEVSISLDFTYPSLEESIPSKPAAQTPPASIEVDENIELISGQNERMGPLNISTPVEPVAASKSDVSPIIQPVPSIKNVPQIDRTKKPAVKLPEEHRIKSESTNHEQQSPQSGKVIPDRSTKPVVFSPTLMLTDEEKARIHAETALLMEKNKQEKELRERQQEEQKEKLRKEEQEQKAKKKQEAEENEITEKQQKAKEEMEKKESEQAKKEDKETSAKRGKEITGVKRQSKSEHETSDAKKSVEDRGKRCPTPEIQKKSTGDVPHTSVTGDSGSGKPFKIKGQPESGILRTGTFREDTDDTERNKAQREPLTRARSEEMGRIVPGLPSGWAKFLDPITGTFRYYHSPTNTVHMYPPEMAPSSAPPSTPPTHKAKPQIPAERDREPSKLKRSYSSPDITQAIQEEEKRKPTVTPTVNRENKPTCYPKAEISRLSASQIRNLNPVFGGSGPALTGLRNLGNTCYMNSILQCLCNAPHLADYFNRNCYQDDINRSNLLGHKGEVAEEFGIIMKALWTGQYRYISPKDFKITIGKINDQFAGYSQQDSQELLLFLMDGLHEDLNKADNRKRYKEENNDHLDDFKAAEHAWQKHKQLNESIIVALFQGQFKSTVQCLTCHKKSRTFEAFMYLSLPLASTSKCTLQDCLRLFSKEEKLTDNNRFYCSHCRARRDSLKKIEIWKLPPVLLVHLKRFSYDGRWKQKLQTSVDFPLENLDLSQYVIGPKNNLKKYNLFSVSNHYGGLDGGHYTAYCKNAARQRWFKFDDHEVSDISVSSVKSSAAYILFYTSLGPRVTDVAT

T5: Caspase-3, P42574
T5 chain: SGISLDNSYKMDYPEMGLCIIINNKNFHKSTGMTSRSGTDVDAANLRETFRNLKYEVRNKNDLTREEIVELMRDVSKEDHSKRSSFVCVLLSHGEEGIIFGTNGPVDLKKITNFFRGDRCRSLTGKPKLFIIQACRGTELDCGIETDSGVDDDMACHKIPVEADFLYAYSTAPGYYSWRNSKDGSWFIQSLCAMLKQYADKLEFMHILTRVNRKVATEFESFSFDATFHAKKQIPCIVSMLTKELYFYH


How the values were obtained:
Assay in all cases: cell-based or functional assay
[1] = molecular target: T1, Ubiquitin carboxyl-terminal hydrolase …
[2] = molecular target: FAP (protease specificity screen, BPS Biosciences), Q12884
Sequence of FAP (protease specificity screen, BPS Biosciences), Q12884 (Q12884 27-760 limits assumed): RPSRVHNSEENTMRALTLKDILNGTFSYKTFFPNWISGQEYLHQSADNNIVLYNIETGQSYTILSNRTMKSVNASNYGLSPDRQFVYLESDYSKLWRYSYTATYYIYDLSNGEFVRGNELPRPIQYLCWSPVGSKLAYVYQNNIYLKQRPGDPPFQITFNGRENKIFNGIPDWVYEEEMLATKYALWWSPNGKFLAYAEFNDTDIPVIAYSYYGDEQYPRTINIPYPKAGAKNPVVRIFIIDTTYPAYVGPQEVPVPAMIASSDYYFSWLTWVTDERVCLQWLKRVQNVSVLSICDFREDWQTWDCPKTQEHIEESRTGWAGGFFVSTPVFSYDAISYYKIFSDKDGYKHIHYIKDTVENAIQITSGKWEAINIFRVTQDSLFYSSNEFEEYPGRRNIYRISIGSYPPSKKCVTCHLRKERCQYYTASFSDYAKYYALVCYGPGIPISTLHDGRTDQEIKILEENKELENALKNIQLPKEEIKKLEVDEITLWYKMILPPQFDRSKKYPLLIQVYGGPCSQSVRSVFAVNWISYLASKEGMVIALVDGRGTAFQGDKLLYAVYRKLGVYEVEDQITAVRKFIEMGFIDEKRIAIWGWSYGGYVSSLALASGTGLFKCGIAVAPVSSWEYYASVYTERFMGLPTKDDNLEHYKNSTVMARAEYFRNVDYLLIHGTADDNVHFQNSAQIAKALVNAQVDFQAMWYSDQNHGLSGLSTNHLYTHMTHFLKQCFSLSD

[3] = molecular target: T2, COX1(h) (human), P23219
[4] = molecular target: T3, COX2(h) (human), P35354
[5] = molecular target: T4, Ubiquitin carboxyl-terminal hydrolase …
[6] = molecular target: T5, Caspase-3, P42574

Binder | Percentage inhibition (%) at 1 µM [1] [%] | Percentage inhibition (%) at 10 µM [1] [%] | Percentage inhibition (%) at 1 µM [2] [%] | Percentage inhibition (%) at 10 µM [2] [%] | % inhibition of control enzyme activity, compound at 10 µM [3] [%] | % inhibition of control enzyme activity, compound at 10 µM [4] [%] | Percentage inhibition (%) at 1 µM [5] [%] | Percentage inhibition (%) at 10 µM [5] [%] | Percentage inhibition (%) at 1 µM [6] [%] | Percentage inhibition (%) at 10 µM [6] [%]
Hex-CPPTQFCD-NH2 (bridge 1-7; not fully specified (bridges); printed as Hex-[Cys(tMeBn(DOTA-PP))-Pro-Pro-Thr-Gln-Phe-Cys]-Asp-NH2) [Hex-[Cys(tMeBn(DOTA-PP))-Pro-Pro-Thr-Gln-Phe-Cys]-Asp-NH2] | 3 | 7 | 98 | 99 | 10 | -14 | -3 | 6 | 1 | -2
Hex-CPPTQFC-OH (bridge 1-7; not fully specified (bridges); printed as Hex-[Cys(tMeBn(DOTA-AET))-Pro-Pro-Thr-Gln-Phe-Cys]-OH) [Hex-[Cys(tMeBn(DOTA-AET))-Pro-Pro-Thr-Gln-Phe-Cys]-OH] | 0 | -1 | 97 | 99 | 8 | -22 | 2 | 1 | -2 | -1

— patent publication US20230212549A1, “COMPOUNDS COMPRISING A […] LIGAND AND USE THEREOF” (priority 2021, published 2023)
